One assay addresses T1, ITK R29L (Homo sapiens, UniProt Q08881, R29L).
T1 construct: made in house; host or cells: cell-free: PURExpress In Vitro Protein Synthesis Kit (New England Biolabs)
T1 sequence (Q08881 1-620 R29L): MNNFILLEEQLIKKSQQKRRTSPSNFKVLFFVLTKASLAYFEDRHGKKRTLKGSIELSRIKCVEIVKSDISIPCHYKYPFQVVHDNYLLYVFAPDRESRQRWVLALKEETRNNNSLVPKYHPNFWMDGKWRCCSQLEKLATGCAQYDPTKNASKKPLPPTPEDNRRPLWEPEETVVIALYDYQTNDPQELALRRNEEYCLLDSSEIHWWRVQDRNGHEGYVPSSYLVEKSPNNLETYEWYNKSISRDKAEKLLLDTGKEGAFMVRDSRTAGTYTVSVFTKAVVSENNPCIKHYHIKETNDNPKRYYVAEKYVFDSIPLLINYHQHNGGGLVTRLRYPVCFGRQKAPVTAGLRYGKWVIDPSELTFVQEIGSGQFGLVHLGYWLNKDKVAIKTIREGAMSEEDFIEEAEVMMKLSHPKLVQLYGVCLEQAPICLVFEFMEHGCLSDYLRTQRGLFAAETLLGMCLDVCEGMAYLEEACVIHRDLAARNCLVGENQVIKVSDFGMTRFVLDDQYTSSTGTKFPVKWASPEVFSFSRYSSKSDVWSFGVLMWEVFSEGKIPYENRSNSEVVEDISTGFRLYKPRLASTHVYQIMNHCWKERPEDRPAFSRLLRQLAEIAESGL
Kind of assay: ITK in vitro translation assay with streptavidin pull-down, R29L. Conditions: 10 μM biotinylated pept-in, fraction binding normalized over vehicle. The method, then: (§1) An in vitro translation approach was used to assess ITK mutant selective binding over wild-type for the 22-006-N001 and 22-018-N001 pept-ins. In particular, in vitro translation assays were performed using the PURExpress® In Vitro Protein Synthesis Kit (New England Biolabs) according to the manufacturer's instructions. Briefly, linear DNA fragments containing T7 promotor and terminator sequences flanking the […] (SEQ ID NO: 68)-tagged ITK coding sequence were generated using PCR and purified using the MinElute PCR Purification Kit (Qiagen). 250 ng of linear DNA was subsequently used for the in vitro translation reaction, which was performed for 2 hrs at 37° C. with shaking (1000 rpm). Indicated biotinylated pept-ins were mixed in the translation reactions from a 5 mM stock solution in 6M Urea to a final concentration of 10 μM. Upon completion of the translation reaction, biotinylated pept-ins were captured from the reaction mix using Streptavidin coated beads (Pierce) during 90 min at room temperature. Beads were next washed with TBS containing 0.1% Tween 20 and bound proteins were finally boiled off in 1×SDS loading dye (Bio-Rad) in TBS buffer. Proteins were resolved using Any kD 15-well Mini-PROTEAN gels (Bio-Rad) during SDS-PAGE and probed for ITK using a rabbit anti-[…] (SEQ ID NO: 68) tag antibody (Cell Signaling 14793) after Western blotting.

In a further assay the target is T2, ITK R29C (Homo sapiens, UniProt Q08881, R29C).
T2 construct: made in house; host or cells: cell-free: PURExpress In Vitro Protein Synthesis Kit (New England Biolabs)
T2 sequence (Q08881 1-620 R29C): T1 sequence (Q08881 1-620 R29L) with L29C
Kind of assay: ITK in vitro translation assay with streptavidin pull-down, R29C. To be noted: 10 μM biotinylated pept-in, fraction binding normalized over vehicle. Here is the method: as §1

Changes are numbered by the printed parent chain.

Consider “AKVLFFVKGSKVLFFVK (ITK pept-in) [22-018-N001]”, for which the “binding to ITK R29L over wild-type” value in the assay with ITK R29L is “Selective binding to the mutant over wild-type”.
In the case of “AKVCFFVKGSKVCFFVK (ITK pept-in) [22-006-N001]”, the “binding to ITK R29C over wild-type” value with ITK R29C was “Selective binding to the mutant over wild-type”.

These data come from patent US20230287046A1, “MOLECULES TARGETING PROTEINS” (AELIN THERAPEUTICS, priority 2020, published 2023).
